± gives the uncertainty stated by the source.

The data set is described as follows: amyloid nucleation score (Sup35N fusion, yeast selection) (log enrichment); library NNK3; higher = more nucleation; inactive = no reads after selection. An outline of the steps: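 Plasmid inserts were Illumina-sequenced at input and output from psi-negative yeast expressing Sup35N fused to peptides of 20 random codons. The yeast were induced with 100 μM copper sulfate for 24 hours and grown 7 days at 30°C on medium lacking adenine and uracil, and sequences with under 100 input reads were excluded. Nucleation score is the DiMSum log enrichment of output over input reads, centred on the mode score of non-aggregating sequences.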

Consider SALPQH, for which the amyloid nucleation score result is “inactive”. The figure for NDFLDVGSVSSYVNTQLPMS is -0.086 ± 0.8; for DLNIIRISAYLCLANCFPST it is 2.37 ± 0.054; for TWRNLILRFGCGGFSKTTFK it is “inactive”. Then RVVLMWDYLIDF, with 1.08 ± 0.16. Then SNTFTPKGNPLWSSVCVFHQ, with “inactive”; and YCDSCLNDFLVWYF, with “inactive”; and QIGFCS, with “inactive”. Consider FRRLHQGLWKMYS, for which the amyloid nucleation score result was “inactive”. The entry for VRISHYA is “inactive”; for RVHFALYSV it is 1.65 ± 0.062; for SSRRSNYASSDPIWIVSLFG it is “inactive”. Then NYLYPKLITYYLTSGLRWII, with “inactive”; and VVTHLALSKRSSAVTIFAWG, with “inactive”.

As for PLSMSHVGAGLKF, the amyloid nucleation score entry was “inactive”. Then AHITRGNKSGAVFASCRTWS, with “inactive”; and SHISWSQYRM, with 1.58 ± 0.11. Consider FGKRQSAMLLDLNSGWSNLD, for which the amyloid nucleation score was -0.42 ± 1.3. For RSCCLQPT, the amyloid nucleation score result is “inactive”. Then DGDIVQCSSLCKVSGFLFTS, with “inactive”; and RTIHVGWVMAIIGTALRCCM, with “inactive”. Regarding CCSSCVWGRVFRSSAMPPRI, the amyloid nucleation score result was “inactive”. As for VGCRMPVACRTWRDKYALAR, the amyloid nucleation score result is “inactive”.

Consider IDVTQERRVGDSTCALGTH, for which the amyloid nucleation score was -0.168 ± 0.73.

Turning to YSTCDLGLHIGAQQERYGLG, the amyloid nucleation score is 0.253 ± 0.37. Then SGIMSHVGGTELLNSLHLMF, with “inactive”; and CIAPILFPALAHQLLLAKGH, with “inactive”. Then YRRELAKSHLYMSIWRNRLP, with “inactive”; and SKVRMVGVSKKCGLTVISVQ, with “inactive”; and HRDYFFRPTFL, with “inactive”. Consider INHFLFYANNRYRRHILVGC, for which the amyloid nucleation score entry is “inactive”.

Turning to HYPIRERNAFLLNNDVDLLA, the amyloid nucleation score result was “inactive”. Then GSLYFSCINPM, with “inactive”; and GWYLFC, with “inactive”. Then AHLTSVYVKTPSFEINISNK, with “inactive”. Then CEKGLFLFSFSKFTSYPPGM, with -0.435 ± 0.55; and SFYVLIVQRCELMSVVVMES, with “inactive”; and LFYSTARCEKSRCVMGRMRG, with “inactive”. With SGFSYRFRDSMGLDKYRCAN, the amyloid nucleation score entry is “inactive”. Regarding PSFFRKLFLPFASYLTMCGE, the amyloid nucleation score entry is “inactive”. Then KVYKLGVSRRSVKAT, with “inactive”; and YLTSFRFYVFTFR, with “inactive”; and YIRELARPTLSRIKRLAPIS, with “inactive”. For the substance GMFRDHAYADCRGLTY, the amyloid nucleation score result was “inactive”. Then DIRYLISSTRYLDVMEGFLV, with “inactive”. Then SSFGQICIRSMQYLVGCKWC, with “inactive”. Then CMTFLNIYSNGQLSGTYCLF, with 1.59 ± 0.083. For the substance LACPWLTLIGYVQIRCNFDG, the amyloid nucleation score result is “inactive”. Then ILIGWMILWAICLPKLVDDG, with “inactive”. Take CVDVSGLFGNIMEVILVMSW: the amyloid nucleation score entry is “inactive”.

The substance GPQYWCVTRNNYYGSFYEVS had an amyloid nucleation score of 0.407 ± 0.18.

With TRHSHLCS, the amyloid nucleation score result was “inactive”. The figure for HWTNHYNYCGRA is 1.19 ± 0.082. Consider AYQCHDDVVWWRCQMASCS, for which the amyloid nucleation score entry is “inactive”. Then VTRPVVSQ, with “inactive”; and IVGLSHDAINTYLWVVVNAP, with “inactive”; and VTRISGTETSDVYINI, with 0.101 ± 0.6.

As for PGNNFKNAAESFRKAYMCRR, the amyloid nucleation score result is “inactive”. The entry for TNLMLSLE is “inactive”; for SCRLWHKRANRVGF it is “inactive”. The entry for VLVGDDCDRTVANVQ is “inactive”; for CEGVAHSDMFLRLLLTETGL it is -0.792 ± 1.8. The entry for DHRNVRRLKVRLTECIE is “inactive”; for YRNRTVFALSGLSQGDLPEV it is “inactive”; for PRCISSPRSPSLNVWVLKSE it is “inactive”. In the case of RLGTMVVDLVERARIEGDVF, the amyloid nucleation score entry was “inactive”. The entry for GSTTWYDLMIYLDME is “inactive”; for CYRISSESWSTWWIYFWSCR it is “inactive”. For DSVNRCFARGILSCLVCL, the amyloid nucleation score result was “inactive”. As for TNFPLALSSRIPSASQISMQ, the amyloid nucleation score is -0.547 ± 1.5.

Take DFRRTGLCIREWSSWRIMKL: the amyloid nucleation score entry is “inactive”.

Take PVLSIYWTGPLKFNYIMMGL: the amyloid nucleation score result is “inactive”. Then LLLVKSTI, with -0.176 ± 0.56. Then CAIRDS, with -0.647 ± 0.41; and IRSIEPYPMHTTSW, with -0.428 ± 1.1; and VSLLRGVLGLVV, with “inactive”. Turning to LCHWFL, the amyloid nucleation score result is “inactive”. The entry for LYNFRECTQTSFISFVCQLV is “inactive”; for VRIWLNVYGVVSLGGRRLLV it is “inactive”; for LVTSNNMSAGRYNMCLRVLS it is “inactive”.

Substance FSGSTSLCLMMRYTSTVR had an amyloid nucleation score of 0.359 ± 0.25. The entry for FGTLFSTVFRVLRFNRISAP is “inactive”; for MSMYVTSF it is “inactive”. Turning to WYPGMCFESVDTMDRHLHND, the amyloid nucleation score result was “inactive”. Then VAAFVNRARNATFVLALYCY, with “inactive”. Then RDIMGLDLFQARNTTRSNYK, with “inactive”; and AVRVEVLGLWYHLKCCWCFL, with -0.755 ± 1.9; and IVKKHVDFQQTVN, with “inactive”. With PEGVSGIAE, the amyloid nucleation score entry is “inactive”. For the substance WLFAIFGDGAVFGSYGGWGV, the amyloid nucleation score result was “inactive”. The entry for SLVTFMLLMIKGMSGYFRTV is “inactive”; for NLINTVKYLNFDGLTAFSSQ it is “inactive”. The entry for KSSTNMEMRMSHLGLLIGEV is “inactive”; for QIVRLTSNIPRTAPSWSFH it is “inactive”; for KWASFLFYFDVMSYSARELN it is -0.32 ± 0.84. Then GRGNAGPCTSNRWDDFWEKK, with “inactive”; and SVTFDAWYCWMN, with “inactive”.

These data come from the supplement of paper PMC12042874.
